Laboratory results as given in article PMC5835413 (Journal of structural biology, 2017).

B1: Fluorescent p190-PH: CFP fused to the N-terminus of the p190 PH domain (domain or fragment)
chain: EKNQKWLEILNKIENKTYTKLKNGHVFRKQALMSEERTLLYDGLVYWKTATGRFKDILALLLTDVLLFLQEKDQKYIFAAVDQKPSVISLQKLIAREVANEERGMFLISASSAGPEMYEIHTNSKEERNNWMRRIQQAVESCPEEK
B2: PH domain of human p190RhoGEF (residues 1049-1194) with C-terminal His6 (domain or fragment, UniProt Q8N1W1 1049-1194, looked up)
chain: B1 chain
B3: Non-tagged mutant (E40D/V43S/A56G) RhoA bound to GTPγS (natural protein)
chain: not shown
B4: PH domain of human PDZRhoGEF (residues 927-1085) with C-terminal His6 (domain or fragment, UniProt O15085 927-1085, looked up)
chain: TENRHRLEGYQKRLDATALERASNPLAAEFKSLDLTTRKMIHEGPLTWRISKDKTLDLHVLLLEDLLVLLQKQDEKLLLKCHSKTAVGSSDSKQTFSPVLKLNAVLIRSVATDKRAFFIICTSKLGPPQIYELVALTSSDKNTWMELLEEAVRNATRHP
B5: PH domain of AKAP-Lbc (domain or fragment, UniProt Q12802 2192-2333, looked up)
chain: VASYEKKVRLNEIYTKTDSKSIMRMKSGQMFAKEDLKRKKLVRDGSVFLKNAAGRLKEVQAVLLTDILVFLQEKDQKYIFASLDQKSTVISLKKLIVREVAHEEKGLFLISMGMTDPEMVEVHASSKEERNSWIQIIQDTIN
B6: PH domain of p114RhoGEF (domain or fragment, UniProt Q6P9R4 723-825, looked up)
chain: QLHLEGALCWKSTSGRLKDVLAVLLTDVLLLLQEKDQKYVFASVDSKPPVISLQKLIVREVANEEKAMFLISASMQGPEMYEMYTSSKEDRNIWMAHIRRAVE

Key:
[1] = target: Non-tagged Rac1 bound to GTPγS (human, UniProt P63000 1-192); assay: FRET or BRET
[2] = target: GST-Rac2 (human, UniProt P15153 1-192); assay: pull-down
[3] = target: GST-RhoC (human, UniProt P08134 1-193); assay: pull-down
Chain of GST-RhoC (P08134 whole entry): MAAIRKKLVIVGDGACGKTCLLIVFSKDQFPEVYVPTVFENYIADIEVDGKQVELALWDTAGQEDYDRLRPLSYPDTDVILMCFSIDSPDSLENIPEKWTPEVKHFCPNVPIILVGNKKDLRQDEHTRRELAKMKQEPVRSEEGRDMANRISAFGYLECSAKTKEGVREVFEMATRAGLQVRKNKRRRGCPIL

[4] = target: GST-RhoB (human, UniProt P62745 1-196); assay: pull-down
Chain of GST-RhoB (P62745 whole entry): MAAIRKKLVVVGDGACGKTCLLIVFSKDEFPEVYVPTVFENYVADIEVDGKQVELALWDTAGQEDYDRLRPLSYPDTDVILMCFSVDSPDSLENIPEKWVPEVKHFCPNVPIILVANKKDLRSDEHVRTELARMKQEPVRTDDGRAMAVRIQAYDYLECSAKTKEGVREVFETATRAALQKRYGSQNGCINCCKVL

[5] = target: GST-Rac3 (human, UniProt P60763 1-192); assay: pull-down
[6] = target: Non-tagged RhoA bound to GTPγS (human, UniProt P61586 1-193); assay: ITC
Chain of Non-tagged RhoA bound to GTPγS (P61586 whole entry): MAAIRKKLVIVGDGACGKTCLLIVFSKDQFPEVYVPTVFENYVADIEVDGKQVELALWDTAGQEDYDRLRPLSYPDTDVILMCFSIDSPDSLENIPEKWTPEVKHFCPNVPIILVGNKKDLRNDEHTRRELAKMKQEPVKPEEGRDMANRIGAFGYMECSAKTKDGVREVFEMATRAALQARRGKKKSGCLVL

[7] = target: B1; assay: FRET or BRET

Binder: B1
- Kd [1]: ~20 µM

Binder: B2
- binding result [2]: binds
- binding result [3]: binds
- binding result [4]: binds
- binding result [5]: binds
- Kd [6]: ~2 µM

Binder: B3
- fold reduction in affinity against wild-type RhoA [7]: 2 fold

Binder: B4
- Kd [6]: 1.2 µM

Binder: B5
- Kd [6]: 3.1 µM

Binder: B6
- Kd [6]: 13 µM
